Test results from the supplement of paper PMC9112550, “Optimization of the antimicrobial peptide Bac7 by deep mutational scanning” (BMC Biology, 2022).

Each sequence was assayed on Escherichia coli TOP10 (assay: shrunken log2 fold change of peptide-encoding DNA abundance (4.5 h post-induction vs induction); higher = less antimicrobial activity (less host growth inhibition)). Conditions: time post-induction: 4.5 h; library: site-saturation at positions 5, 18, 19, 20.
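Note: peptides expressed intracellularly from a pBAD plasmid library in pooled LB shake-flask culture, induced with 0.3% L-arabinose, DNA abundance read by NGS, three biological replicates, DESeq2 with apeglm shrinkage.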

Which “shrunken log2 fold change” value does the source give for RRIRPRPPRLPRPRPRPGPGPRP here?
The value was 0.621.

For RRIRFRPPRLPRPRPRPRWWPRP, which “shrunken log2 fold change” value is on record?
The value was 0.34.

With RRIRARPPRLPRPRPRPRENPRP as the sequence, how does the “shrunken log2 fold change” value read?
Its value is 1.06.

Which “shrunken log2 fold change” value does the source give for RRIRTRPPRLPRPRPRPLKFPRP here?
Its value is -0.27.

Which “shrunken log2 fold change” value does the source give for RRIRPRPPRLPRPRPRPVTMPRP here?
Its value is -0.297.

With RRIRERPPRLPRPRPRPVREPRP as the sequence, how does the “shrunken log2 fold change” value read?
The value was 0.242.

How did the “shrunken log2 fold change” value turn out when RRIRPRPPRLPRPRPRPICRPRP was run?
Its value is -0.276.

For RRIRVRPPRLPRPRPRPDFPPRP, which “shrunken log2 fold change” value is on record?
The value was 0.0164.

RRIRMRPPRLPRPRPRPALFPRP was tested. Which “shrunken log2 fold change” value did it give?
The value was 0.356.

How did the “shrunken log2 fold change” value turn out when RRIRTRPPRLPRPRPRPPHTPRP was run?
Its value is 0.0399.

How did the “shrunken log2 fold change” value turn out when RRIRRRPPRLPRPRPRPVPRPRP was run?
Its value is 0.518.

How did the “shrunken log2 fold change” value turn out when RRIRCRPPRLPRPRPRPQIEPRP was run?
Its value is -0.335.

How did the “shrunken log2 fold change” value turn out when RRIRVRPPRLPRPRPRPECRPRP was run?
The value was 0.238.

RRIRMRPPRLPRPRPRPEAFPRP was tested. Which “shrunken log2 fold change” value did it give?
Its value is 2.91.

For RRIRHRPPRLPRPRPRPDFDPRP, which “shrunken log2 fold change” value is on record?
The value was 0.0484.

RRIRFRPPRLPRPRPRPPRWPRP was tested. Which “shrunken log2 fold change” value did it give?
The value was 0.659.

With RRIRTRPPRLPRPRPRPHGFPRP as the sequence, how does the “shrunken log2 fold change” value read?
The value was -0.0139.

Which “shrunken log2 fold change” value does the source give for RRIRRRPPRLPRPRPRPVVPPRP here?
The value was 0.47.

How did the “shrunken log2 fold change” value turn out when RRIRLRPPRLPRPRPRPQMNPRP was run?
Its value is -0.507.

Which “shrunken log2 fold change” value does the source give for RRIRGRPPRLPRPRPRPKIVPRP here?
Its value is 0.278.

How did the “shrunken log2 fold change” value turn out when RRIRRRPPRLPRPRPRPEACPRP was run?
The value was 0.463.

How did the “shrunken log2 fold change” value turn out when RRIRRRPPRLPRPRPRPWMIPRP was run?
Its value is -0.26.

Which “shrunken log2 fold change” value does the source give for RRIRDRPPRLPRPRPRPLMHPRP here?
Its value is 0.164.

With RRIRLRPPRLPRPRPRPQRSPRP as the sequence, how does the “shrunken log2 fold change” value read?
The value was 0.16.

For RRIRPRPPRLPRPRPRPMIPPRP, which “shrunken log2 fold change” value is on record?
The value was -0.124.

RRIRCRPPRLPRPRPRPLKFPRP was tested. Which “shrunken log2 fold change” value did it give?
The value was -0.162.

With RRIRGRPPRLPRPRPRPTRHPRP as the sequence, how does the “shrunken log2 fold change” value read?
The value was 0.764.

With RRIRMRPPRLPRPRPRPEISPRP as the sequence, how does the “shrunken log2 fold change” value read?
The value was 0.0502.

RRIRMRPPRLPRPRPRPGGKPRP was tested. Which “shrunken log2 fold change” value did it give?
The value was 0.583.

With RRIRFRPPRLPRPRPRPHCSPRP as the sequence, how does the “shrunken log2 fold change” value read?
Its value is 0.0308.

With RRIRQRPPRLPRPRPRPHPNPRP as the sequence, how does the “shrunken log2 fold change” value read?
The value was -0.389.

Which “shrunken log2 fold change” value does the source give for RRIRTRPPRLPRPRPRPDDHPRP here?
The value was -0.00476.

For RRIRCRPPRLPRPRPRPSIAPRP, which “shrunken log2 fold change” value is on record?
Its value is -0.3.

Which “shrunken log2 fold change” value does the source give for RRIRKRPPRLPRPRPRPHCRPRP here?
The value was -0.022.

For RRIRWRPPRLPRPRPRPETWPRP, which “shrunken log2 fold change” value is on record?
Its value is 0.502.

For RRIRWRPPRLPRPRPRPEITPRP, which “shrunken log2 fold change” value is on record?
The value was 0.437.

How did the “shrunken log2 fold change” value turn out when RRIRGRPPRLPRPRPRPGYYPRP was run?
The value was -0.301.

For RRIRNRPPRLPRPRPRPWYKPRP, which “shrunken log2 fold change” value is on record?
The value was -0.00149.

For RRIRCRPPRLPRPRPRPSRKPRP, which “shrunken log2 fold change” value is on record?
Its value is -0.227.

With RRIRERPPRLPRPRPRPWLEPRP as the sequence, how does the “shrunken log2 fold change” value read?
The value was 0.101.

With RRIRWRPPRLPRPRPRPDRMPRP as the sequence, how does the “shrunken log2 fold change” value read?
The value was 0.0163.

For RRIRARPPRLPRPRPRPEEMPRP, which “shrunken log2 fold change” value is on record?
Its value is 1.73.

RRIRSRPPRLPRPRPRPNGWPRP was tested. Which “shrunken log2 fold change” value did it give?
Its value is 0.623.

For RRIRGRPPRLPRPRPRPFNFPRP, which “shrunken log2 fold change” value is on record?
The value was 0.0755.

With RRIRLRPPRLPRPRPRPSSAPRP as the sequence, how does the “shrunken log2 fold change” value read?
Its value is -0.0182.

With RRIRYRPPRLPRPRPRPYGKPRP as the sequence, how does the “shrunken log2 fold change” value read?
The value was -1.27.

With RRIRHRPPRLPRPRPRPRRCPRP as the sequence, how does the “shrunken log2 fold change” value read?
Its value is 0.166.

Which “shrunken log2 fold change” value does the source give for RRIRDRPPRLPRPRPRPSYIPRP here?
The value was -0.267.

How did the “shrunken log2 fold change” value turn out when RRIRLRPPRLPRPRPRPCHTPRP was run?
Its value is -0.173.

For RRIRGRPPRLPRPRPRPVFYPRP, which “shrunken log2 fold change” value is on record?
The value was -0.0818.

How did the “shrunken log2 fold change” value turn out when RRIRARPPRLPRPRPRPAAHPRP was run?
Its value is 0.478.

RRIRVRPPRLPRPRPRPKVKPRP was tested. Which “shrunken log2 fold change” value did it give?
The value was 0.0531.

RRIRRRPPRLPRPRPRPFMIPRP was tested. Which “shrunken log2 fold change” value did it give?
The value was -0.394.

Which “shrunken log2 fold change” value does the source give for RRIRLRPPRLPRPRPRPFPQPRP here?
The value was -0.0558.

For RRIRSRPPRLPRPRPRPQHYPRP, which “shrunken log2 fold change” value is on record?
Its value is -0.804.

RRIRHRPPRLPRPRPRPRECPRP was tested. Which “shrunken log2 fold change” value did it give?
The value was 0.0559.

For RRIRYRPPRLPRPRPRPYAIPRP, which “shrunken log2 fold change” value is on record?
Its value is -0.00088.

With RRIRQRPPRLPRPRPRPPMWPRP as the sequence, how does the “shrunken log2 fold change” value read?
Its value is 0.336.

For RRIRFRPPRLPRPRPRPCCSPRP, which “shrunken log2 fold change” value is on record?
The value was -0.139.

For RRIRERPPRLPRPRPRPNFQPRP, which “shrunken log2 fold change” value is on record?
Its value is 0.0442.

Which “shrunken log2 fold change” value does the source give for RRIRSRPPRLPRPRPRPVGAPRP here?
The value was 0.538.

With RRIRLRPPRLPRPRPRPMTQPRP as the sequence, how does the “shrunken log2 fold change” value read?
The value was 0.162.

For RRIRFRPPRLPRPRPRPMSNPRP, which “shrunken log2 fold change” value is on record?
Its value is 0.0556.

RRIRARPPRLPRPRPRPAAMPRP was tested. Which “shrunken log2 fold change” value did it give?
Its value is 0.856.

Which “shrunken log2 fold change” value does the source give for RRIRGRPPRLPRPRPRPYFFPRP here?
Its value is 0.0463.

RRIRCRPPRLPRPRPRPDQHPRP was tested. Which “shrunken log2 fold change” value did it give?
The value was 0.0432.

How did the “shrunken log2 fold change” value turn out when RRIRNRPPRLPRPRPRPKYAPRP was run?
The value was -0.292.

How did the “shrunken log2 fold change” value turn out when RRIRERPPRLPRPRPRPQDPPRP was run?
Its value is -0.232.

With RRIRLRPPRLPRPRPRPCGSPRP as the sequence, how does the “shrunken log2 fold change” value read?
Its value is -0.105.

With RRIRGRPPRLPRPRPRPPIAPRP as the sequence, how does the “shrunken log2 fold change” value read?
Its value is 0.874.

Which “shrunken log2 fold change” value does the source give for RRIRKRPPRLPRPRPRPWAQPRP here?
Its value is 0.315.

How did the “shrunken log2 fold change” value turn out when RRIRDRPPRLPRPRPRPRDRPRP was run?
Its value is 0.13.

RRIRLRPPRLPRPRPRPQLNPRP was tested. Which “shrunken log2 fold change” value did it give?
The value was -0.214.

With RRIRVRPPRLPRPRPRPSWLPRP as the sequence, how does the “shrunken log2 fold change” value read?
The value was 0.23.

RRIRCRPPRLPRPRPRPFKCPRP was tested. Which “shrunken log2 fold change” value did it give?
The value was -0.232.

Which “shrunken log2 fold change” value does the source give for RRIRFRPPRLPRPRPRPCYWPRP here?
Its value is -0.0974.

Which “shrunken log2 fold change” value does the source give for RRIRVRPPRLPRPRPRPPFDPRP here?
Its value is 0.199.

For RRIRLRPPRLPRPRPRPSDTPRP, which “shrunken log2 fold change” value is on record?
The value was -0.142.

For RRIRIRPPRLPRPRPRPYNQPRP, which “shrunken log2 fold change” value is on record?
The value was -1.01.

For RRIRWRPPRLPRPRPRPPSDPRP, which “shrunken log2 fold change” value is on record?
Its value is 0.184.

With RRIRVRPPRLPRPRPRPDSYPRP as the sequence, how does the “shrunken log2 fold change” value read?
Its value is 0.0384.

How did the “shrunken log2 fold change” value turn out when RRIRGRPPRLPRPRPRPLTHPRP was run?
Its value is 0.168.

How did the “shrunken log2 fold change” value turn out when RRIRWRPPRLPRPRPRPAYYPRP was run?
The value was -0.157.

For RRIRTRPPRLPRPRPRPPAPPRP, which “shrunken log2 fold change” value is on record?
Its value is 0.592.

How did the “shrunken log2 fold change” value turn out when RRIRGRPPRLPRPRPRPVACPRP was run?
Its value is 0.72.

RRIRERPPRLPRPRPRPISLPRP was tested. Which “shrunken log2 fold change” value did it give?
The value was -0.28.

Which “shrunken log2 fold change” value does the source give for RRIRRRPPRLPRPRPRPACCPRP here?
Its value is 0.714.

Which “shrunken log2 fold change” value does the source give for RRIRYRPPRLPRPRPRPPVGPRP here?
The value was 0.0196.

For RRIRWRPPRLPRPRPRPCCKPRP, which “shrunken log2 fold change” value is on record?
The value was 0.0725.

For RRIRARPPRLPRPRPRPRFYPRP, which “shrunken log2 fold change” value is on record?
The value was -0.0395.

RRIRARPPRLPRPRPRPSVFPRP was tested. Which “shrunken log2 fold change” value did it give?
The value was 0.461.

For RRIRFRPPRLPRPRPRPGLYPRP, which “shrunken log2 fold change” value is on record?
The value was -0.171.

RRIRQRPPRLPRPRPRPRQKPRP was tested. Which “shrunken log2 fold change” value did it give?
The value was 0.257.

RRIRIRPPRLPRPRPRPKPSPRP was tested. Which “shrunken log2 fold change” value did it give?
The value was 0.128.

For RRIRHRPPRLPRPRPRPTSVPRP, which “shrunken log2 fold change” value is on record?
Its value is -0.0283.

RRIRVRPPRLPRPRPRPEFCPRP was tested. Which “shrunken log2 fold change” value did it give?
The value was 0.267.

Which “shrunken log2 fold change” value does the source give for RRIRARPPRLPRPRPRPYCRPRP here?
The value was -0.885.

RRIRFRPPRLPRPRPRPYNTPRP was tested. Which “shrunken log2 fold change” value did it give?
The value was -1.1.

For RRIRCRPPRLPRPRPRPYPNPRP, which “shrunken log2 fold change” value is on record?
Its value is -0.459.

Which “shrunken log2 fold change” value does the source give for RRIRCRPPRLPRPRPRPYFVPRP here?
The value was -1.13.

With RRIRSRPPRLPRPRPRPWKAPRP as the sequence, how does the “shrunken log2 fold change” value read?
The value was -0.00809.

RRIRDRPPRLPRPRPRPVRTPRP was tested. Which “shrunken log2 fold change” value did it give?
The value was -0.176.

Which “shrunken log2 fold change” value does the source give for RRIRPRPPRLPRPRPRPMSGPRP here?
The value was 0.115.

With RRIRRRPPRLPRPRPRPEQRPRP as the sequence, how does the “shrunken log2 fold change” value read?
Its value is 0.272.

How did the “shrunken log2 fold change” value turn out when RRIRHRPPRLPRPRPRPQTEPRP was run?
Its value is -0.102.

With RRIRDRPPRLPRPRPRPWYIPRP as the sequence, how does the “shrunken log2 fold change” value read?
The value was -0.0219.

With RRIRSRPPRLPRPRPRPYFWPRP as the sequence, how does the “shrunken log2 fold change” value read?
Its value is -0.538.

RRIRGRPPRLPRPRPRPYPMPRP was tested. Which “shrunken log2 fold change” value did it give?
Its value is -0.142.

With RRIRERPPRLPRPRPRPIDVPRP as the sequence, how does the “shrunken log2 fold change” value read?
The value was -0.0231.
